Results published in paper PMC4182348 (PLoS ONE, 2014).

B1: anti-TT mAb of hybridoma 24 (antibody, V domains shown)
VH: VQLQQTGPGLVQPSQSLSITCTVSAFSLTNYGIHWVRQSPGKGLEWLGVIWTGGSTDYNAPFISRLSISKDNSKSQVFFKMNSLQANDTAIYYCVRDGYRVMDYWGQGTSVTVSS
VL: LSASVGETVTITCRASGNIHNYLAWYQQKQGKSPQLLVYNAKTLTDGVPSRFSGSGSGTQHSLKINSLQPEDFGSYYCQHFWTIPWTFGGGTKLEIK
B2: anti-TT mAb of hybridoma 14 (antibody, V domains shown)
VH: VQLQESGPGLVAPSQSLSITCTVSGFSLTSYGVHWVRQPPGKGLEWLGVIWPGGSTNYNSALMSRLSISQDNSKSQVFLKMNSLQIDDTAMYHCARDFQYGNYFDYWGQGTSLTVSS
VL: MPASPGEKITITCSASSSISSNYLHWYQQKPGFSPKLLIYRTSNLASGVPARFSGSGSGTSYSLTVGTMEAEDVATYYCQQGTSIPTFGAGTKLELK

Tests used:
[1] = molecular target: tetanus toxin fragment C of the heavy chain; experiment: ELISA; conditions: one partner purified
[2] = molecular target: T1, tetanus toxin light chain (Clostridium tetani, strain  …, UniProt P04958); experiment: ELISA; conditions: one partner purified
T1 construct: source: bought: List Biological Laboratories
T1 sequence (P04958 1-457): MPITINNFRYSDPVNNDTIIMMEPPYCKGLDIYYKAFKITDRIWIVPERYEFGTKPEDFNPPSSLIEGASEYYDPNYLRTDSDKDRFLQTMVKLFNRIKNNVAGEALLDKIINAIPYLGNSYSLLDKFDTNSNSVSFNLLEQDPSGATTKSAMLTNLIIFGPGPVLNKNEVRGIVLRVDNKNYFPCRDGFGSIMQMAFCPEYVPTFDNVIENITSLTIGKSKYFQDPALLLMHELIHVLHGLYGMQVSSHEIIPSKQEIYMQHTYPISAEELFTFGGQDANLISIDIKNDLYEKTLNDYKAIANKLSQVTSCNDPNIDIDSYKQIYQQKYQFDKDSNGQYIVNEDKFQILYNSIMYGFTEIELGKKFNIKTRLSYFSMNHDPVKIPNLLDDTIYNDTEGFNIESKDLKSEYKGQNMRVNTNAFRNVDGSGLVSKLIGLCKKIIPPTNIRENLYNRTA

Sequence of tetanus toxin fragment C of the heavy chain (P04958 865-1315 limits assumed): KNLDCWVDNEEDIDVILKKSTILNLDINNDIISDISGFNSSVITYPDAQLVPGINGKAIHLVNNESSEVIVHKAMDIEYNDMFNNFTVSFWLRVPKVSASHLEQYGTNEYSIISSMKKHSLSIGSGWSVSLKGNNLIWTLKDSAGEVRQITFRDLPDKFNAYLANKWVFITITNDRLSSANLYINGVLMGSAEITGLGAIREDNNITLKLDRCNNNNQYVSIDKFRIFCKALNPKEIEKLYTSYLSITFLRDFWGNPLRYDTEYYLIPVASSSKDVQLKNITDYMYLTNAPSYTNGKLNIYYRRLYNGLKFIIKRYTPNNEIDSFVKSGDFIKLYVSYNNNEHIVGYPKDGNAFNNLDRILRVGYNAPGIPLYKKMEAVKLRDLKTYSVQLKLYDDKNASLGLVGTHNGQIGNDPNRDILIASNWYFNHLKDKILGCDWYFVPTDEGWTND

| Binder | binding result [1] | binding result [2] |
| --- | --- | --- |
| B1 | binds | no binding |
| B2 | no binding | no binding |
